Data taken from patent US8669352 (PANGENETICS B V, dated 2014).
Positions count from the first letter of the chain named. In names and notes the source's numbering stands. Several values for one entry are separate records, joined by “and”; a condition that tells them apart may be missing. Equal values may be shown once. Values belong to the binder of their own block, whether it stands above or below them.

Assays:
human CD40 [1] = biological target: T1, human CD40 (human, UniProt P25942 21-277); assay: cell-based or functional assay
human CD40 [2] = biological target: T1, human CD40; assay: flow cytometry on JY cells; competitor 1 µg/mL PG102-PE; n=4
Method: (§1) Competitive Inhibition of ch5D12 (PG100)-PE and PG102-PE Binding to JY Cells Expressing Human CD40 Using Unlabelled Anti-CD40 Antibody Materials and Methods JY cells (Epstein—Barr virus-transformed human B lymphoblastoid cell line) were grown in Iscove's Modified Dulbecco's Medium (IMDM) containing 10% heat-inactivated foetal calf serum (FCS), 2 mM L-glutamine and 50 μg/mL gentamycin in an air-humidified atmosphere containing 5% CO_2, at 37° C. Cells were harvested on the day of flow cytometric measurements.
(§2) Unlabelled ch5D12 (PG100) (Batch 4) and PG102 (Batch 2) antibodies were used in these experiments. Both antibodies were also used in PE-labelled form for direct determination of binding to JY cells by flow cytometry. Antibodies were custom-labelled with PE by AbD Serotec (Oxford, UK). For each FACS analysis the following protocol was used. JY cells were harvested from cell culture and counted. […] Cells were washed followed by flow cytometric analysis in which the MFI at every concentration was determined using a FACScan flow cyometer (Becton & Dickinson). Five thousand events/sample were measured and analyzed using CellQuest® software (Becton & Dickinson).

[3] = biological target: T2, huCD40-muIg (Ancell, catalogue number 504-020) (human, UniProt P25942 21-193); assay: ELISA on coated human CD40-Fc; half-maximal binding concentration
T2 construct: also called CD40-Fc; human CD40-Fc; not shown: murine Ig part
Method: Plates were washed 3 times with 200 μL/well wash buffer (0.05% Tween-20 in PBS). Subsequently, plates were blocked with 200 μL/well blocking buffer (5% BSA Fraction V [Roche, catalogue number 735094] in wash buffer) and incubated for 1 h at 37° C. (humid environment). Plates were washed 3 times with wash buffer. Test antibodies (ch5D12 (PG100), PG102, and negative control chimaeric anti-huCD86 antibody chFUN-1) were diluted in the range 0-1200 ng/mL in blocking buffer and transferred to assay plates in a final volume of 100 μL/well, followed by incubation for 1 h at 37° C. (humid environment). Plates were washed 3 times with wash buffer followed by addition of 100 μl/well goat anti-human kappa-AP detection antibody (Southern Biotech Associates catalogue number 2060-0) diluted 1:1000 in blocking buffer. Plates were incubated for 1 h at 37° C. in a humid environment before washing 3 times with wash buffer and a further single wash with PBS.

[4] = biological target: T3, Recombinant human CD40 extracellular domain fused to human IgG1-Fc domain (huCD40-Fc; R&D Systems 149-CD-50) (human, UniProt P25942 21-193); assay: SPR (Biacore 3000), immobilised huCD40-Fc, Langmuir (1:1) model
T3 construct: extracellular domain; Bought reagent; also called human CD40-Fc; not shown: human IgG1-Fc domain
Method: (§3) The kinetics of ch5D12 (PG100) and PG102 (I29L variant) binding to human CD40 were compared by surface plasmon resonance at a constant temperature of 25.0° C., using a Biacore 3000 instrument. Recombinant human CD40 extracellular domain fused to human IgG1-Fc domain (huCD40-Fc; R&D Systems catalogue number 149-CD-50) was used as the target antigen in these experiments. HuCD40-Fc (1 µg/mL in 10 mM acetate buffer, pH 5.0) was coupled via the amine groups of Lys residues to carbodiimide-activated Biacore CM5 chips, resulting in an antigen immobilization level of 127.4 RU. For kinetic analyses, dilution series of ch5D12 (PG100) and PG102 (range 10.0 µg/mL to 0.313 µg/mL) were prepared in Biacore Running Buffer (HEPES-buffered saline containing EDTA and surfactant; HBS-EP). Kinetic analyses were performed at a flow rate of 30 µL/min. Samples were allowed to bind for 4 min and to dissociate for 5 min, at the same flow rate. The chip surface was then regenerated for 30 seconds using 30 mM NaOH and a baseline re-established in HBS-EP for 2.5 min before injection of the next sample. […]
(§4) BIAcore control software (Version 3.2) was used for data collection and BIAevaluation software (Version 4.1) was used for analysis of kinetic data. Binding parameters were calculated using two different models of molecular interaction: a bivalent analyte model and Langmuir 1:1 binding model.

human CD40 [5] = biological target: T1, human CD40; assay: flow cytometry on JY cells; competitor 1 µg/mL ch5D12 (PG100)-PE; n=4
Method: as §1, §2

[6] = biological target: T3, Recombinant human CD40 extracellular …; assay: SPR (Biacore 3000), immobilised huCD40-Fc, Langmuir (1:1) model, ka
Method: as §3, §4

[7] = biological target: T3, Recombinant human CD40 extracellular …; assay: SPR (Biacore 3000), immobilised huCD40-Fc, Langmuir (1:1) model, kd
Method: as §3, §4

[8] = biological target: T3, Recombinant human CD40 extracellular …; assay: SPR (Biacore 3000), immobilised huCD40-Fc, bivalent binding (1:2) model
Method: as §3, §4

[9] = biological target: T3, Recombinant human CD40 extracellular …; assay: SPR (Biacore 3000), immobilised huCD40-Fc, bivalent binding (1:2) model, ka1
Method: as §3, §4

[10] = biological target: T3, Recombinant human CD40 extracellular …; assay: SPR (Biacore 3000), immobilised huCD40-Fc, bivalent binding (1:2) model, kd1
Method: as §3, §4

human CD40 [11] = biological target: T1, human CD40; assay: flow cytometry competition on JY cells against 1 µg/mL PE-labelled ch5D12 (PG100) or PG102; range told of both antibodies
Method: as §1, §2

human CD40 [12] = biological target: T1, human CD40; assay: FACS on JY cells expressing CD40; 100 µl PER.C6 transient supernatant harvested after 48 h (antibody concentration not equalised), FITC anti-human IgG 1/100; in the same figure Mock Control Mean 11.25 / Median 8.74, FACS control (secondary only) Mean 10.18 / Median 8.74
Method: (§5) FIG. 8. FACS analysis using JY cells. PER.C6 cell supernatant of the transient expressed variants (Q5E, K13A, E16Q, T17S, I29L, 37V, P45L, M48L, STS60NSA, T68S, S79F, and T108S) of 5D12 was harvested after 48 h. As control also supernatant was harvested of cells transfected with either ch5D12 or D15D12 together with supernatant from mock (no plasmid) transfected cells. Binding of expressed antibodies was tested by FACS using JY cells together with anti-human FITC labelled secondary antibody (1/100 diluted). As FACS control JY cells were incubated with only the secondary FITC labelled antibody.
(§6) By FACS analysis the antigen specificity of the expressed antibodies was analyzed. JY cells are EBV transformed human B-cells, which express CD40. Briefly, 100,000 JY cells were incubated with 100 µl supernatant from the transient expression experiment at 4° C. for 20 minutes. To remove unbound antibody cells were washed with PBS containing 0.05% NaAzide and 1% BSA. As secondary antibody 1/100 diluted FITC labeled anti-human IgG (Jackson 109-095-127) was used. After 20 minutes incubation at 4° C. cells were washed. Finally cell samples were measured on a FACScan (BD).

human CD40 [13] = biological target: T1, human CD40; assay: FACS on JY cells expressing CD40; 100 µl PER.C6 transient supernatant harvested after 48 h (antibody concentration not equalised), FITC anti-human IgG 1/100; in the same figure Mock Control Mean 11.25 / Median 8.74, FACS control (secondary only) Mean 10.18 / Median 8.74 [Condt.]
Method: as §5, §6

T3 sequence (P25942 21-193): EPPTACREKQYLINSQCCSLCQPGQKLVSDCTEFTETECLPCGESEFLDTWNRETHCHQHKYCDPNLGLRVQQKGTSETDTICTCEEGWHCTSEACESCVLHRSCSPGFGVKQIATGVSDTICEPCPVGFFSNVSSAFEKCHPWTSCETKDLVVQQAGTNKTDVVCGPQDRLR
T1 sequence (P25942 21-277): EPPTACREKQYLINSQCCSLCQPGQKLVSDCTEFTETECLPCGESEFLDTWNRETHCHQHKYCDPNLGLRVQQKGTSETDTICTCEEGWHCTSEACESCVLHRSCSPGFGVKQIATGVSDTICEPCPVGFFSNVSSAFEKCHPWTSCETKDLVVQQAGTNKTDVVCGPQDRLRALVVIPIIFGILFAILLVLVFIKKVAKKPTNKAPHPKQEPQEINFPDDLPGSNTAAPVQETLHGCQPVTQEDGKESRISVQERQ
T2 sequence (P25942 21-193): as the sequence (P25942 21-193) above

-log IC50 for inhibition of IL-8 release by IFN-gamma-pulsed THP-1 cells co-cultured with Jurkat 39.8/50 cells (human CD40 [1]): 8.42 -log10 (unit not printed)
-log IC50 (human CD40 [2]): 7.65 -log10 of g/mL (per p-0205: ~20-30 ng/mL)
EC50 [3]: ~0.03 µg/mL
Kd [4]: 0.237 nM
-log IC50 (human CD40 [5]): 7.63 -log10 of g/mL (per p-0205: ~20-30 ng/mL)
kon [6]: 2.51e+06 M⁻¹ s⁻¹
koff [7]: 0.000596 s⁻¹
Kd [8]: 5.41 nM
kon [9]: 782000 M⁻¹ s⁻¹
koff [10]: 0.00247 s⁻¹
Mean (FL1-H) (human CD40 [12]): 108 FL1-H
Median (FL1-H) (human CD40 [12]): 91.8 FL1-H
B1: PG102 (I29L variant) (antibody, human IgG4, kappa, V domains shown)
VH: QVKLQESGPGLVKPSETLSITCTVSGFSLSRYSVYWIRQPPGKGPEWMGMMWGGGSTDYSTSLKSRLTISKDTSKSQVSLKMNSLRTDDTAMYYCVRTDGDYWGQGTTVTVSS
VL: ELQLTQSPLSLPVTLGQPASISCRSSQSLANSNGNTYLHWYLQRPGQSPRLLIYKVSNRFSGVPDRFSGSGSGTDFTLKISRVEAEDVGVYYCSQSTHVPWTFGGGTKLEIKR
notes: Human IgG4/kappa; also called 29L-37I
IC50 (human CD40 [11]): 0.02 µg/mL to 0.03 µg/mL (2×) and 0.13 nM to 0.2 nM (2×)

Mean (FL1-H) (human CD40 [12]): 33.4 FL1-H
Median (FL1-H) (human CD40 [12]): 31.9 FL1-H
B2: T17S variant of deimmunised 5D12 (antibody, human IgG4, V domains shown)
VH: B1 VH with T17S, L29I
VL: B1 VL
notes: VH on a human IgG4 backbone

Mean (FL1-H) (human CD40 [13]): 99 FL1-H
Median (FL1-H) (human CD40 [13]): 85.8 FL1-H
B3: T108S variant of deimmunised 5D12 (antibody, human IgG4, V domains shown)
VH: B1 VH with L29I, T108S
VL: B1 VL
notes: VH on a human IgG4 backbone

Mean (FL1-H) (human CD40 [13]): 80.3 FL1-H
Median (FL1-H) (human CD40 [13]): 72.3 FL1-H
B4: M48L variant of deimmunised 5D12 (antibody, human IgG4, V domains shown)
VH: B1 VH with L29I, M48L
VL: B1 VL
notes: VH on a human IgG4 backbone

Mean (FL1-H) (human CD40 [12]): 31.2 FL1-H
Median (FL1-H) (human CD40 [12]): 30 FL1-H
B5: K13A variant of deimmunised 5D12 (antibody, human IgG4, V domains shown)
VH: B1 VH with K13A, L29I
VL: B1 VL
notes: VH on a human IgG4 backbone

Mean (FL1-H) (human CD40 [12]): 39 FL1-H
Median (FL1-H) (human CD40 [12]): 37.5 FL1-H
B6: Q5E variant of deimmunised 5D12 (antibody, human IgG4, V domains shown)
VH: B1 VH with Q5E, L29I
VL: B1 VL
notes: VH on a human IgG4 backbone

Mean (FL1-H) (human CD40 [13]): 35.2 FL1-H
Median (FL1-H) (human CD40 [13]): 34 FL1-H
B7: T68S variant of deimmunised 5D12 (antibody, human IgG4, V domains shown)
VH: B1 VH with L29I, T68S
VL: B1 VL
notes: VH on a human IgG4 backbone

Mean (FL1-H) (human CD40 [13]): 62.4 FL1-H
Median (FL1-H) (human CD40 [13]): 58.8 FL1-H
B8: STS60NSA variant of deimmunised 5D12 (antibody, human IgG4, V domains shown)
VH: B1 VH with L29I, S60N, T61S, S62A
VL: B1 VL
notes: VH on a human IgG4 backbone

Mean (FL1-H) (human CD40 [13]): 96.4 FL1-H
Median (FL1-H) (human CD40 [13]): 82 FL1-H
B9: S79F variant of deimmunised 5D12 (antibody, human IgG4, V domains shown)
VH: B1 VH with L29I, S79F
VL: B1 VL
notes: VH on a human IgG4 backbone

Mean (FL1-H) (human CD40 [13]): 82.5 FL1-H
Median (FL1-H) (human CD40 [13]): 74.3 FL1-H
B10: P45L variant of deimmunised 5D12 (antibody, human IgG4, V domains shown)
VH: B1 VH with L29I, P45L
VL: B1 VL
notes: VH on a human IgG4 backbone

Mean (FL1-H) (human CD40 [12]): 39.5 FL1-H
Median (FL1-H) (human CD40 [12]): 38.2 FL1-H
B11: E16Q variant of deimmunised 5D12 (antibody, human IgG4, V domains shown)
VH: B1 VH with E16Q, L29I
VL: B1 VL
notes: VH on a human IgG4 backbone

Mean (FL1-H) (human CD40 [12]): 96 FL1-H
Median (FL1-H) (human CD40 [12]): 82 FL1-H
B12: I37V variant of deimmunised 5D12 (antibody, human IgG4, V domains shown)
VH: B1 VH with L29I, I37V
VL: B1 VL
notes: VH on a human IgG4 backbone; also called 137V; 29I-37V
